Assay results from US20160326230A1, “HUMAN RELAXIN ANALOGUE, PHARMACEUTICAL COMPOSITION OF SAME, AND PHARMACEUTICAL APPLICATION OF SAME” (SHANGHAI HENGRUI PHARMACEUTICAL CO., LTD., priority 2013, published 2016).
Positions of bridges follow the written chain, without caps; N, C: chain ends. Chains are numbered I, II in the order given. No end group written: not given here.

Target: the receptor on THP-1 cells
Test: cell-based or functional assay

EC50 (ng/ml) of cAMP induced in THP-1 cells (cAMP ELISA): 1.5 ng/mL
B1: recombinant human relaxin analog 800814 (ligand)
chain 1: DSWMEEVIKLCGRDLVRAQIAICGMSTWS
chain 2: DLYSALANKCCHVGCTKRSLARFC
modifications: disulfide I:23-II:24; also: two more disulfides among A10, A11, A15 and B11
